Drawing on patent US20060193821, this text covers Kd for 35 sequences.

The target of series [1] is IL-23 (human, p19/p40 heterodimer) (Homo sapiens) (UniProt Q9NPF7+P29460). Put plainly: filter.
Series [2] deals with IL-12 (human, p35/p40 heterodimer) (Homo sapiens) (UniProt P29459+P29460). Briefly: filter.
Chain of IL-12 (human, p35/p40 heterodimer) (Homo sapiens) (P29459 23-219, chain 1 of 2): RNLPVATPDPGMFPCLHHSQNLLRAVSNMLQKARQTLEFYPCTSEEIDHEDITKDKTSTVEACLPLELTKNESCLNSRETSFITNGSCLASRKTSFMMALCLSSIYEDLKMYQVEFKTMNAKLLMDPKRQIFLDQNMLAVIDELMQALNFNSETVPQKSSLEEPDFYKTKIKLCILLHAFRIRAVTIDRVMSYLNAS
Chain of IL-12 (human, p35/p40 heterodimer) (Homo sapiens) (P29460 23-328, chain 2 of 2): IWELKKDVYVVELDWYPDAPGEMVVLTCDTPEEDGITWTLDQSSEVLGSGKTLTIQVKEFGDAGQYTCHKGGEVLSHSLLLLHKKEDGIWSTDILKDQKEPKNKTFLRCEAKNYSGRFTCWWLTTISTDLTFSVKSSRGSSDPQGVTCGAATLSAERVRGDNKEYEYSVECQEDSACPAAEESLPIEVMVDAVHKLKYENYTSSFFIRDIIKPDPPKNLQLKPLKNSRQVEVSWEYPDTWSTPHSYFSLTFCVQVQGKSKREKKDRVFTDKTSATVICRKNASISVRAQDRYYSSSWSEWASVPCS

Chain of IL-23 (human, p19/p40 heterodimer) (Homo sapiens) (Q9NPF7 20-189, chain 1 of 2): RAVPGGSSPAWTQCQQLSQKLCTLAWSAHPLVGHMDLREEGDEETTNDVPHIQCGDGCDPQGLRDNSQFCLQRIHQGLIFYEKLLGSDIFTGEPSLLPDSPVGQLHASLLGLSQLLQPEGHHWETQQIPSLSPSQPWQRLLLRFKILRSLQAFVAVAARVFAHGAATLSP
Chain of IL-23 (human, p19/p40 heterodimer) (Homo sapiens) (P29460 23-328, chain 2 of 2): as the sequence (P29460 23-328, chain 2 of 2) above

By Kd is commonly meant the free concentration of one partner at which half of the binding sites on the other are occupied at equilibrium, for simple one-to-one binding. For “ACAGGCAAGUAAUUGGGGAGUGCGGGCGGGGUGU [ARC1615]”, the dissociation constant (Kd) in series [1] (deoxy A,G, 2'-OMe C,U, dI at G28,G29, 3'-idT [dI at 28,29 (G parent), 2'-OMe C/U at 2,6,10,13,14,21,23,27,32,34, other A,G deoxy, 3'-inverted dT at 35], DPBS Ca Mg) turned out to be 5.8 nM.

In the case of “GGGAAAAGCGAAUCAUACACAAGAGCGCUUUAGCGGGUAUAGCACUUUUCAUCUAAUGAANCCGUAGCUCCGCCAGAGACCAACCGAGAA [AMX86-H11]”, the Kd was 367 nM in series [1] (2'-F C,U, SHMCK, tRNA) and 215 nM in series [2] (2'-F C,U, tRNA).

In series [1] (deoxy A,G, 2'-OMe C,U, dI at G17, 3'-idT [17], DPBS Ca Mg), “ACAGGCAAGUAAUUGGGGAGUGCGGGCGGGGUGU [ARC1597]” had an equilibrium dissociation constant (Kd) of 11.2 nM.

Take “ACAGGCAAGUAAUUGGGGAGUGCGGGCGGGGUGU [ARC1619]”: the Kd in series [1] (deoxy A,G, 2'-OMe C,U, dI at G33, 3'-idT [dI at 33 (G parent), 2'-OMe C/U at 2,6,10,13,14,21,23,27,32,34, other A,G deoxy, 3'-inverted dT at 35], DPBS Ca Mg) is 2.8 nM.

With “ACAGGCAAGUAAUUGGGGAGUGCGGGCGGGGUGU [ARC1596]”, the Kd in series [1] (deoxy A,G, 2'-OMe C,U, dI at G16, 3'-idT [dI at 16 (parent G), 2'-OMe C,U at 2,6,10,13,14,21,23,27,32,34, deoxy A,G elsewhere, 3'-inverted dT at 35], DPBS Ca …) was 11.1 nM.

As for “ACAGGCAAGUAAUUGGGGAGUGCGGGCGGGGUGU [ARC1594]”, the Kd in series [1] (deoxy A,G, 2'-OMe C,U, dI at G9, 3'-idT [dI at 9 (parent G), 2'-OMe C,U at 2,6,10,13,14,21,23,27,32,34, deoxy A,G elsewhere, 3'-inverted dT at 35], DPBS Ca Mg) amounted to 4.2 nM.

On to “ACAGGCAAGUAAUUGGGGAGUGCGGGCGGGGUGU [ARC1607]”, for which the Kd in series [1] (deoxy A,G, 2'-OMe C,U, dI at G26, 3'-idT [26], DPBS Ca Mg) stood at 3.3 nM.

“ACAGGCAAGUAAUUGGGGAGUGCGGGCGGGGUGU [ARC1614]”: the Kd in series [1] (deoxy A,G, 2'-OMe C,U, dI at G31, 3'-idT [dI at 31 (G parent), 2'-OMe C/U at 2,6,10,13,14,21,23,27,32,34, other A,G deoxy, 3'-inverted dT at 35], DPBS Ca Mg) stood at 1.7 nM.

Turning to “ACAGGCAAGUAAUUGGGGAGUGCGGGCGGGGUGU [ARC1612]”, the Kd in series [1] (deoxy A,G, 2'-OMe C,U, dI at G29, 3'-idT [dI at 29 (G parent), 2'-OMe C/U at 2,6,10,13,14,21,23,27,32,34, other A,G deoxy, 3'-inverted dT at 35], DPBS Ca Mg) is 1.9 nM.

Consider “GGGAAAAGCGAAUCCUACCCAAGAUGUUGUUGGCGUUGAUCGUAUGAUUNAUGGAGNGUGUCNGUGCUCCGCCAGAGACCAACCGAGAA [AMX86-E7]”, for which the Kd came out at 210 nM in series [1] (2'-F C,U, SHMCK, tRNA) and 268 nM in series [2] (2'-F C,U, tRNA).

Sequence “ACAGGCAAGUAAUUGGGGAGUGCGGGCGGGGUGU [ARC1466]” returned a Kd in series [1] (deoxy A,G, 2'-OMe C,U, PEG spacers between stem 1 strands and core, 3'-idT, DPBS Ca Mg) of 1.9 nM.

“ACAGGCAAGUAAUUGGGGAGUGCGGGCGGGGUGU [ARC1605]” had a Kd in series [1] (deoxy A,G, 2'-OMe C,U, dI at G24, 3'-idT [24], DPBS Ca Mg) of 7.5 nM.

The sequence “GGGAGAGGAGAGAACGUUCUACGGAAGGNAACAANAGCACUGUUUGUGCAGGCGCUGUCGAUCNAUCNAUCNAUG [rRmY clone SEQ 85]” came in with a Kd in series [1] (2'-OMe C,U, DPBS Ca Mg) of 240 nM.

Turning to “ACAGGCAAGUAAUUGGGGAGUGCGGGCGGGGUGU [ARC1609]”, the Kd in series [1] (deoxy A,G, 2'-OMe C,U, dI at G25,G26, 3'-idT [25,26], DPBS Ca Mg) turned out to be 4.7 nM.

On to “ACAGGCAAGUAAUUGGGGAGUGCGGGCGGGGUGU [ARC1602]”, for which the Kd in series [1] (dRmY, deoxyinosine at G15-G18, 3'-idT [deoxyinosine at 15-18 (parent base G written), 2'-deoxy purines, 2'-OMe C/U (2,6,10,13,14,21,23,27,32,34), 3'-inverted dT at 35], dot blot, DPBS with Ca and Mg, 0.1 mg/mL BSA, 30 min RT) was determined as 40.8 nM.

As to “ACAGGCAAGUAAUUGGGGAGUGCGGGCGGGGUGU [ARC1610]”, in series [1] (deoxy A,G, 2'-OMe C,U, dI at G24-G26, 3'-idT [dI at 24,25,26 (G parent), 2'-OMe C/U at 2,6,10,13,14,21,23,27,32,34, other A,G deoxy, 3'-inverted dT at 35], DPBS Ca Mg), the Kd was determined as 5.2 nM.

For the sequence “ACAGGCAAGUAAUUGGGGAGUGCGGGCGGGGUGU [ARC1592]”, the Kd in series [1] (deoxy A,G, 2'-OMe C,U, dI at G5, 3'-idT [dI at 5 (parent G), 2'-OMe C,U at 2,6,10,13,14,21,23,27,32,34, deoxy A,G elsewhere, 3'-inverted dT at 35], DPBS Ca Mg) came to 8.1 nM.

For the sequence “ACAGGCAAGUAAUUGGGGAGUGCGGGCGGGGUGU [ARC1595]”, in series [1] (deoxy A,G, 2'-OMe C,U, dI at G15, 3'-idT [dI at 15 (parent G), 2'-OMe C,U at 2,6,10,13,14,21,23,27,32,34, deoxy A,G elsewhere, 3'-inverted dT at 35], DPBS Ca …), the Kd is 5.4 nM.

In series [1] (deoxy A,G, 2'-OMe C,U, dI at G17,G18, 3'-idT [17,18], DPBS Ca Mg), “ACAGGCAAGUAAUUGGGGAGUGCGGGCGGGGUGU [ARC1601]” yielded a Kd of 4.4 nM.

Take “ACAGGCAAGUAAUUGGGGAGUGCGGGCGGGGUGU [ARC1611]”: the Kd in series [1] (deoxy A,G, 2'-OMe C,U, dI at G28, 3'-idT [dI at 28 (G parent), 2'-OMe C/U at 2,6,10,13,14,21,23,27,32,34, other A,G deoxy, 3'-inverted dT at 35], DPBS Ca Mg) was 1.7 nM.

In the case of “ACAGGCAAGUAAUUGGGGAGUGCGGGCGGGGUGU [ARC1613]”, the Kd in series [1] (deoxy A,G, 2'-OMe C,U, dI at G30, 3'-idT [dI at 30 (G parent), 2'-OMe C/U at 2,6,10,13,14,21,23,27,32,34, other A,G deoxy, 3'-inverted dT at 35], DPBS Ca Mg) came out at 2.3 nM.

For “ACAGGCAAGUAAUUGGGGAGUGCGGGCGGGGUGU [ARC1617]”, in series [1] (deoxy A,G, 2'-OMe C,U, dI at G30,G31, 3'-idT [dI at 30,31 (G parent), 2'-OMe C/U at 2,6,10,13,14,21,23,27,32,34, other A,G deoxy, 3'-inverted dT at 35], DPBS Ca Mg), the dissociation constant Kd was determined as 4.1 nM.

In series [1] (deoxy A,G, 2'-OMe C,U, dI at G15,G16, 3'-idT [15,16], DPBS Ca Mg), “ACAGGCAAGUAAUUGGGGAGUGCGGGCGGGGUGU [ARC1599]” registered a Kd of 7.2 nM.

In series [1] (deoxy A,G, 2'-OMe C,U, dI at G25, 3'-idT [25], DPBS Ca Mg), “ACAGGCAAGUAAUUGGGGAGUGCGGGCGGGGUGU [ARC1606]” gave a Kd of 5 nM.

As to “ACAGGCAAGUAAUUGGGGAGUGCGGGCGGGGUGU [ARC1618]”, the Kd in series [1] (dRmY, deoxyinosine at G28-G31, 3'-idT [deoxyinosine at 28-31 (parent base G written), 2'-deoxy purines, 2'-OMe C/U (2,6,10,13,14,21,23,27,32,34), 3'-inverted dT at 35], dot blot, DPBS with Ca and Mg, 0.1 mg/mL BSA, 30 min RT) is 34 nM.

Regarding “GGGAAAAGCGAAUCAUACACAAGAGGUUGAGUACGACGGAGUCNUGGCUAACACGGAAACUAGAGCUCCGCCAGAGACCAACCGAGAA [AMX86-B9]”, the Kd came out at 23.7 nM in series [1] (2'-F C,U, SHMCK, tRNA) and 848 nM in series [2] (2'-F C,U, tRNA).

“ACAGGCAAGUAAUUGGGGAGUGCGGGCGGGGUGU [ARC1598]” had a Kd in series [1] (deoxy A,G, 2'-OMe C,U, dI at G18, 3'-idT [18], DPBS Ca Mg) of 4.7 nM.

As for “ACAGGCAAGUAAUUGGGGAGUGCGGGCGGGGUGU [ARC1616]”, the equilibrium dissociation constant (Kd) in series [1] (deoxy A,G, 2'-OMe C,U, dI at G29,G30, 3'-idT [dI at 29,30 (G parent), 2'-OMe C/U at 2,6,10,13,14,21,23,27,32,34, other A,G deoxy, 3'-inverted dT at 35], DPBS Ca Mg) was determined as 6.1 nM.

On to “ACAGGCAAGUAAUUGGGGAGUGCGGGCGGGGUGU [ARC1608]”, for which the Kd in series [1] (deoxy A,G, 2'-OMe C,U, dI at G24,G25, 3'-idT [24,25], DPBS Ca Mg) stood at 9.7 nM.

For the sequence “ACAGGCAAGUAAUUGGGGAGUGCGGGCGGGGUGU [ARC1593]”, the Kd in series [1] (deoxy A,G, 2'-OMe C,U, dI at G4,G5, 3'-idT [dI at 4,5 (parent G), 2'-OMe C,U at 2,6,10,13,14,21,23,27,32,34, deoxy A,G elsewhere, 3'-inverted dT at 35], DPBS Ca Mg) amounted to 13.8 nM.

Turning to “GGGAAAAGCGAAUCAUACACAAGAUGUUGAACCUCUUGUGCGUCCCGAUGUUUNGCAAUGUGGAGCUCCGCCAGAGACCAACCGAGAA [AMX86-F7]”, the Kd came out at 147 nM in series [1] (2'-F all C and U (rRfY), 1X SHMCK, 1 mM Mg, 1 mM Ca, 0.1 mg/mL tRNA, RT); 106 nM in series [2] (2'-F all C and U (rRfY), 1X SHMCK, 0.1 mg/mL tRNA, RT).

With “ACAGGCAAGUAAUUGGGGAGUGCGGGCGGGGUGU [ARC1604]”, the Kd in series [1] (deoxy A,G, 2'-OMe C,U, dI at G22, 3'-idT [22], DPBS Ca Mg) was 2.1 nM.

With “ACAGGCAAGUAAUUGGGGAGUGCGGGCGGGGUGU [ARC1603]”, in series [1] (deoxy A,G, 2'-OMe C,U, dI at G20, 3'-idT [20], DPBS Ca Mg), the Kd turned out to be 1.6 nM.

With “ACAGGCAAGUAAUUGGGGAGUGCGGGCGGGGUGU [ARC1600]”, the Kd in series [1] (deoxy A,G, 2'-OMe C,U, dI at G16,G17, 3'-idT [16,17], DPBS Ca Mg) is 15.6 nM.

As to “CGCAGGCAAGUAAUUGGGGAGUGCGGGCGGGGUGCG [ARC1467]”, the Kd in series [1] (2'-OMe C,U and some stem G, PEG spacers between stem 1 strands and core, 3'-idT, DPBS Ca Mg) was 1.7 nM.
